The data set deals with Ae. aegypti adult females, RJ strain. The experiment in a line: dsRNA treatment of larvae followed by pyrethroid (deltamethrin) adulticide bottle bioassay. The data set is classed as in vivo, Aedes aegypti. The settings on record: soaking 0.1 μg/μL 24 hours plus 4 feedings with food-containing dsRNA, deltamethrin 0.5 μg/bottle. The protocol: Third instar larvae were treated (in groups of 100 larvae) in a final volume of 3 mL of dsRNA solution in autoclaved water (0.5 μg/μL for sodium channel (AAEL008297), PgP (AAEL010379) and Ago3 (AAEL007823) dsRNA, or 0.1 μg/μL for CYP9J26 (JF924909.1). The control group was kept in 3 ml sterile water only. Larvae were soaked in the dsRNA solutions for 24 hr at 27° C., and then transferred into new containers (300 larvae/1500 mL of chlorine-free tap water), which were also maintained at 27° C., and were provided 6 mg/100 mL lab dog/cat diet (Purina Mills) suspended in water as a source of food on a daily basis. As pupae developed, they were transferred to individual vials to await eclosion and sex sorting. For bioassays purpose only females up to five days old were used. See FIG. 11 for detailed explanation of this experiment.
After soaking in the dsRNA solutions for 24 hr at 27° C., the larvae were transferred into new containers (300 larvae/1500 mL of chlorine-free tap water), and were provided agarose cubes containing 300 μg of dsRNA once a day for a total of four days. The larvae were reared until adult stage. […]
Bottles were prepared following the Brogdon and McAllister (1998) protocol [Brogdon and McAllister (1998) Emerg Infect Dis 4:605-613]. […] At 15, 30 and 45 min intervals, the number of live and dead mosquitoes in each bottle was recorded. […]

The values below come from US20170051285A1, “COMPOSITIONS AND METHODS OF USING SAME FOR REDUCING RESISTANCE TO MOSQUITO LARVICIDES” (priority 2014, published 2017).

B1: CYP9J26 dsRNA: dsRNA targeting Cytochrome p450 (CYP9J26) JF924909.1, SEQ ID NO: 203 (nucleic acid)
chain: CTTCAACGACTTCGTCCGATCAATTTACAACAAATATCCTGGAGTGAAGGTTTTCGGAATGTTCGAGACGATCACGCCGTTCTTCGTGATTCGCGATCCGGAGTTGATCAAGCAGATCGGCATCAAGGATTTCGATCACTTCGTTGACCACCGTCCGACGTTCGGACTGGACGATGAAACGGCGGAGCATCCGAAGGCGCTGTTCCGCAAGACGCTGTTCTCGATGACCGGTCAACGGTGGAAGGAGATGCGCGCTACGCTGAGTCCGGCTTTTACCGGCAGTAAGATGCGACAGATGTTCTCGCTGATGAGCGAATGCTGCGACGAAATGATGAAGCACTACCTGGACAAGGCGAAGGGCACGGGAAGGGTGGAAGTCGAAATGAAGGACTTGCTGAGTCGAATCACTATCAATGTGATTGCGTCGTGTGCTTTTGGAATCAAGGTGGAC
modifications: double stranded RNA
As to B1, the “susceptibility of adult mosquitoes to deltamethrin (FIG. 18)” value is recorded as “more sensitive to deltamethrin during the first 15 minutes”. Moreover, for the setting “listed as CYP9J29 dsRNA”, the “susceptibility of adult mosquitoes to deltamethrin (FIG. 18)” value is given as “affects the susceptibility”.
